Common to all, as to details: both partners purified
One assay concerns the target T1, LARP4A NTD W22F (human, UniProt Q71RC2 1-287, W22F).
T1 construct: LARP4A (LARP4), human, residues 1-287, PAM2w single mutant; Generated from the NTD by site-directed mutagenesis; used untagged; source: E. coli Rosetta II, purified (His-Trap, tag cleaved, nickel column, heparin or DEAE); not shown: His6, N-terminal, cleaved
In words: pull-down; His-SUMO-MLLE (200 ug) as bait mixed with 250 ug untagged LARP4A protein on ice, Ni-NTA agarose, washes in 50 mM Tris pH 7.25, 100 mM KCl, 0.2 mM EDTA, 1 mM DTT, 10 mM imidazole, elution with 500 mM imidazole, Coomassie SDS-PAGE.

The target of assay [1] is T2, LARP4A (1-287), N-terminal domain (human, UniProt Q71RC2 1-287).
T2 construct: LARP4A (LARP4), human, residues 1-287 (NTR 1-111 with PAM2w motif 13-26, plus La module 111-287); The NTD was cloned both with a TEV-cleavable His6 tag (pRSFDuet-1) and with a His6-SUMO tag (pET28SUMO, cut by ULP1); also called NTD; LARP4A NTD; source: E. coli Rosetta II, purified (His-Trap, tag cleaved, nickel column, heparin or DEAE); not shown: His6, N-terminal, cleaved
T2 sequence (Q71RC2 1-287): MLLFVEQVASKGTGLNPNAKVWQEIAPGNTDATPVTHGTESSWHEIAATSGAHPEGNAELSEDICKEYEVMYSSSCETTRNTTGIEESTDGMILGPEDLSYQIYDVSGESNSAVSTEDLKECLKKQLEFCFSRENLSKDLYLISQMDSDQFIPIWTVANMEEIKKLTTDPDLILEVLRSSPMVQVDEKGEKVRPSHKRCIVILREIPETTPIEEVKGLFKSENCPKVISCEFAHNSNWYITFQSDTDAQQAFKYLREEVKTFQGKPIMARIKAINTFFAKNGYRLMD
The description is as above.

A further assay concerns the target T3, LARP4A NTD L15A (human, UniProt Q71RC2 1-287, L15A).
T3 construct: LARP4A (LARP4), human, residues 1-287, PAM2w single mutant; Generated from the NTD by site-directed mutagenesis; used untagged; source: E. coli Rosetta II, purified (His-Trap, tag cleaved, nickel column, heparin or DEAE); not shown: His6, N-terminal, cleaved
The assay is described as above.

The next assay deals with T4, LARP4A NTD W22A (human, UniProt Q71RC2 1-287, W22A).
T4 construct: LARP4A (LARP4), human, residues 1-287, PAM2w single mutant; Generated from the NTD by site-directed mutagenesis; used untagged; source: E. coli Rosetta II, purified (His-Trap, tag cleaved, nickel column, heparin or DEAE); not shown: His6, N-terminal, cleaved
T4 sequence (Q71RC2 1-287 W22A): as the sequence (Q71RC2 1-287) above, with W22A counted along it
The assay is described as above.

Assay [2] addresses T2, LARP4A (1-287), N-terminal domain. Put plainly: native gel or EMSA; competition EMSA: MLLE 12.5-200 uM titrated into a pre-formed complex of 7.5 uM LARP4A NTD and 2 nM 32P-oligoA15; competition constant KC from the fraction of bound RNA. (A gel shift assay detects complexes by their altered migration in electrophoresis.)

T1 sequence (Q71RC2 1-287 W22F): as the sequence (Q71RC2 1-287) above, with W22F counted along it
T3 sequence (Q71RC2 1-287 L15A): as the sequence (Q71RC2 1-287) above, with L15A counted along it

B1: His-SUMO-MLLE (PABPC1 MLLE domain 544-626 fused with a His-tagged SUMO tag) (domain or fragment, UniProt P11940 544-626, looked up)
chain: PLTASMLASAPPQEQKQMLGERLFPLIQAMHPTLAGKITGMLLEIDNSELLHMLESPESLRSKVDEAVAVLQAHQAKEAAQKA
notes: Fragment 544-626 inserted into pET28SUMO; the tag was kept and used as the handle for Ni-NTA capture; source: E. coli Rosetta II, purified; not shown: His6-SUMO, N-terminal, kept
As to B1, the binding result (with LARP4A NTD W22F; in assay [1]; with LARP4A NTD L15A; with LARP4A NTD W22A) was “binds” each time.

B2: PABPC1 MLLE (544-626) (domain or fragment, UniProt P11940 544-626, looked up)
chain: B1 chain
notes: also called PABP MLLE; MLLE domain; source: E. coli Rosetta II, purified (glutathione agarose, 3C protease, nickel column, SEC); not shown: GST, N-terminal, cleaved
Consider B2, for which, in assay [2], the binding result is “binds”.

These data come from article PMC6486636, “LARP4A recognizes polyA RNA via a novel binding mechanism mediated by disordered regions and involving the PAM2w motif, revealing interplay between PABP, LARP4A and mRNA” (Nucleic Acids Research, 2019).
